The target in experiment [1] is HLA-A*01:01. Put plainly: IEDB peptide-MHC binding, purified MHC/competitive/radioactivity; filed as Kd, often an IC50 or EC50 that approximates it; ≥ and ≤ were set here for values at or beyond the usual limits of such assays.
Experiment [2] concerns the target HLA-A*02:01. The description is as above.
A further experiment addresses HLA-A*02:02. The description is as above.
For another experiment, the target named is HLA-A*02:03. The description is as above.
Another experiment addresses HLA-A*02:06. The experiment is described as above.
Experiment [3] has as its target HLA-A*03:01. Described as above.
For experiment [4], the target named is HLA-A*11:01. The description is as above.
Experiment [5] deals with HLA-A*31:01. The experiment is described as above.
Another experiment addresses HLA-A*33:01. The experiment is described as above.
The target of a further experiment is HLA-A*68:01. The description is as above.
A further experiment concerns the target HLA-A*68:02. The experiment is described as above.
Experiment [6] concerns the target HLA-B*07:02. The experiment is described as above.
The target in experiment [7] is HLA-B*08:01. The experiment is described as above. The following applies: source organism: Hepacivirus hominis.
In a further experiment the target is HLA-B*35:01. Described as above.
Another experiment concerns the target HLA-B*51:01. The description is as above.
A further experiment addresses HLA-B*53:01. The experiment is described as above.
A further experiment deals with HLA-B*54:01. The experiment is described as above.
Experiment [8] has as its target HLA-A*01:01. Put plainly: IEDB peptide-MHC binding, purified MHC/direct/fluorescence; filed as Kd, often an IC50 or EC50 that approximates it; ≥ and ≤ were set here for values at or beyond the usual limits of such assays.
The target in experiment [9] is HLA-A*02:01. The experiment is described as above.
Experiment [10] concerns the target HLA-A*03:01. Described as above.
The target in experiment [11] is HLA-A*11:01. Described as above.
Experiment [12] has as its target HLA-A*26:01. Described as above. The following applies: source organism: Bacillus licheniformis.
Experiment [13] concerns the target HLA-A*31:01. The experiment is described as above.
The target in another experiment is HLA-A*69:01. The experiment is described as above. The following applies: source organism: Bacillus licheniformis.
Experiment [14] deals with HLA-B*07:02. Described as above.
The target in experiment [15] is HLA-B*08:01. The experiment is described as above.
Another experiment concerns the target HLA-B*15:01. Described as above. The following applies: source organism: Bacillus licheniformis.
Another experiment has as its target HLA-B*27:05. Described as above.
In a further experiment the target is HLA-B*40:01. The experiment is described as above. The following applies: source organism: Bacillus licheniformis.
The target in the next experiment is HLA-B*58:01. The experiment is described as above.
The target of the next experiment is HLA-B*15:17. Put plainly: IEDB peptide-MHC binding, purified MHC/competitive/fluorescence; filed as Kd, often an IC50 or EC50 that approximates it; ≥ and ≤ were set here for values at or beyond the usual limits of such assays. The following applies: source organism: Bacillus licheniformis.
Experiment [16] deals with HLA-A*26:01. Put plainly: IEDB peptide-MHC binding, purified MHC/competitive/radioactivity; filed as Kd, often an IC50 or EC50 that approximates it; ≥ and ≤ were set here for values at or beyond the usual limits of such assays. The following applies: source organism: Lassa virus Josiah.
Experiment [17] concerns the target HLA-A*29:02. The experiment is described as above. The following applies: source organism: Lassa virus Josiah.
For the next experiment, the target named is HLA-A*30:01. The description is as above. The following applies: source organism: Lassa virus Josiah.
The next experiment addresses HLA-A*30:02. Described as above. The following applies: source organism: Lassa virus Josiah.
A further experiment addresses HLA-A*32:01. The experiment is described as above. The following applies: source organism: Lassa virus Josiah.
Experiment [18] concerns the target HLA-A*29:02. Kind of experiment: IEDB peptide-MHC binding, purified MHC/direct/fluorescence; filed as Kd, often an IC50 or EC50 that approximates it; ≥ and ≤ were set here for values at or beyond the usual limits of such assays. The following applies: source organism: Corynebacterium diphtheriae.
The target of the next experiment is HLA-B*44:02. The description is as above. The following applies: source organism: Corynebacterium diphtheriae.
In a further experiment the target is HLA-B*46:01. The experiment is described as above. The following applies: source organism: Corynebacterium diphtheriae.
For the next experiment, the target named is HLA-B*48:01. The experiment is described as above. The following applies: source organism: Corynebacterium diphtheriae.
In the next experiment the target is HLA-B*57:01. The experiment is described as above. The following applies: source organism: Corynebacterium diphtheriae.
[19] abbreviates: source organism: Hepacivirus hominis.
Where [20] appears, read: source organism: Vaccinia virus WR.
[21] abbreviates: source organism: Bacillus licheniformis.
[22] abbreviates: source organism: Lassa virus Josiah.
Setting [23] is: source organism: Corynebacterium diphtheriae.

The pKd is the Kd on a negative log10 scale, so that one unit is a factor of ten.

pKd: −log10 of the molar value. Some results are limits rather than exact numbers.

As to HSKRKCDEL, the negative-log Kd (pKd) in the experiment with HLA-A*01:01 [1] (setting [19]) is at most 4.22; in the experiment with HLA-A*02:01 [2] (setting [19]) it was at most 4.47; with HLA-A*02:02 (setting [19]), at most 4.36; in the experiment with HLA-A*02:03 (setting [19]), 4.91; in the experiment with HLA-A*02:06 (setting [19]), 5.94; with HLA-A*03:01 [3] (setting [19]), at most 4.11. Further, the pKd is at most 4.11 with HLA-A*11:01 [4] (setting [19]); at most 4.11 with HLA-A*31:01 [5] (setting [19]); at most 4.11 with HLA-A*33:01 (setting [19]); at most 4.11 with HLA-A*68:01 (setting [19]); at most 4.16 with HLA-A*68:02 (setting [19]); at most 4.22 with HLA-B*07:02 [6] (setting [19]). Also, the pKd is at most 4.11 in the experiment with HLA-B*08:01 [7]; at most 4.11 in the experiment with HLA-B*35:01 (setting [19]); at most 4.33 with HLA-B*51:01 (setting [19]); at most 4.52 in the experiment with HLA-B*53:01 (setting [19]); at most 4.44 in the experiment with HLA-B*54:01 (setting [19]).

Regarding IVLFQRFLR, the negative-log Kd (pKd) with HLA-A*02:01 [2] (setting [20]) is at most 4.11; with HLA-A*02:02 (setting [20]) it was at most 4.27; with HLA-A*02:03 (setting [20]), at most 4.32; in the experiment with HLA-A*02:06 (setting [20]), at most 4.32; with HLA-A*03:01 [3] (setting [20]), 6.62; in the experiment with HLA-A*11:01 [4] (setting [20]), 7.87. For the same sequence, the pKd in the experiment with HLA-A*31:01 [5] (setting [20]) is 9.73; in the experiment with HLA-A*33:01 (setting [20]) it was 8.62; in the experiment with HLA-A*68:01 (setting [20]), 8.91; with HLA-A*68:02 (setting [20]), at most 4.28; with HLA-B*07:02 [6] (setting [20]), at most 4.11; in the experiment with HLA-B*35:01 (setting [20]), at most 4.66. In addition, the pKd with HLA-B*51:01 (setting [20]), in the experiment with HLA-B*53:01 (setting [20]) and with HLA-B*54:01 (setting [20]) was at most 4.11 in each case.

As to KTIECSKEL, the pKd in the experiment with HLA-A*01:01 [8] (setting [21]) is at most 4.70; with HLA-A*02:01 [9] (setting [21]) it was 6.63; with HLA-A*03:01 [10] (setting [21]), at most 4.70; with HLA-A*11:01 [11] (setting [21]), at most 4.70; in the experiment with HLA-A*26:01 [12] it was at most 4.70; in the experiment with HLA-A*31:01 [13] (setting [21]), 5.25. Moreover, the negative-log Kd (pKd) with HLA-A*69:01 was at most 4.70; in the experiment with HLA-B*07:02 [14] (setting [21]), at most 4.70; in the experiment with HLA-B*08:01 [15] (setting [21]) it was at most 4.70; with HLA-B*15:01 it was 6.33; in the experiment with HLA-B*27:05 (setting [21]) it was at most 4.70; with HLA-B*40:01, at most 4.70. In addition, the pKd with HLA-B*58:01 (setting [21]) was 6.55; with HLA-B*15:17 it was 8.00.

As for LISIFLHLV, the pKd in the experiment with HLA-A*01:01 [1] (setting [22]) is 5.72; with HLA-A*02:01 [2] (setting [22]), 7.33; with HLA-A*02:02 (setting [22]), 7.95; in the experiment with HLA-A*02:03 (setting [22]), 7.68; in the experiment with HLA-A*02:06 (setting [22]), 7.09; in the experiment with HLA-A*26:01 [16], 4.99. Moreover, the negative-log Kd (pKd) with HLA-A*29:02 [17] is 4.93; in the experiment with HLA-A*30:01, 5.93; with HLA-A*30:02, 5.04; with HLA-A*32:01 it was 5.17; in the experiment with HLA-A*68:02 (setting [22]) it was 7.19.

On to VERRLVKVL, for which the negative logarithm of the Kd (pKd) with HLA-A*01:01 [8] (setting [23]), in the experiment with HLA-A*02:01 [9] (setting [23]), with HLA-A*03:01 [10] (setting [23]), with HLA-A*11:01 [11] (setting [23]), with HLA-A*29:02 [18] and in the experiment with HLA-A*31:01 [13] (setting [23]) was at most 4.70 throughout. Moreover, the negative logarithm of the Kd (pKd) is at most 4.70 with HLA-B*07:02 [14] (setting [23]); 5.15 in the experiment with HLA-B*08:01 [15] (setting [23]); at most 4.70 in the experiment with HLA-B*27:05 (setting [23]); at most 4.70 with HLA-B*44:02; at most 4.70 with HLA-B*46:01; at most 4.70 with HLA-B*48:01. Further, the negative-log Kd (pKd) in the experiment with HLA-B*57:01 and in the experiment with HLA-B*58:01 (setting [23]) was at most 4.70 each time.

Source of the values: the Immune Epitope Database (IEDB).
